Data on one molecule can be found in publication doi:10.1101/2020.01.12.903617, “The peptide sensor motif stabilizes the outward-facing conformation of TmrAB” (bioRxiv, 2020).

No end group written: not given here. fluorescein = fluorescein label attached to the Cys side chain

For the experiment, the target named is T1, TmrAB D117A^TmrB (Thermus thermophilus, UniProt Q72J05 1-600; Q72J04 1-578, D117A).
T1 construct: TmrA, Thermus thermophilus, the chain of TmrAB with the canonical Walker B motif; TmrB, Thermus thermophilus, the chain of TmrAB with the non-canonical Walker B motif
T1 sequence 1: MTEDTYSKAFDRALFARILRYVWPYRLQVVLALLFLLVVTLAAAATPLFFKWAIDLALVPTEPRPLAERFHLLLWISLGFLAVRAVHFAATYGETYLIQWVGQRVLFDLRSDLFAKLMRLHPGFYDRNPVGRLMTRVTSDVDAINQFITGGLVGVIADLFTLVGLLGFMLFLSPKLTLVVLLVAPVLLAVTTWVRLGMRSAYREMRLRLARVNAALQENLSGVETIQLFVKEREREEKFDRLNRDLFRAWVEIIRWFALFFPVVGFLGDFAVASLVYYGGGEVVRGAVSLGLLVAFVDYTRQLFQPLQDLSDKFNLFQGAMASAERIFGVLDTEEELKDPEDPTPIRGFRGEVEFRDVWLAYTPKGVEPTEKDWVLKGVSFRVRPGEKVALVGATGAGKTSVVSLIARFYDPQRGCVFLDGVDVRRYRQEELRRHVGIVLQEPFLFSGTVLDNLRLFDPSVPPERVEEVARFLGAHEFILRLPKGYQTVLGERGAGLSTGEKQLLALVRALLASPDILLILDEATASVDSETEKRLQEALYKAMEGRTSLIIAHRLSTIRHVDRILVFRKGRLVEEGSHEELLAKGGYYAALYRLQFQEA
T1 sequence 2: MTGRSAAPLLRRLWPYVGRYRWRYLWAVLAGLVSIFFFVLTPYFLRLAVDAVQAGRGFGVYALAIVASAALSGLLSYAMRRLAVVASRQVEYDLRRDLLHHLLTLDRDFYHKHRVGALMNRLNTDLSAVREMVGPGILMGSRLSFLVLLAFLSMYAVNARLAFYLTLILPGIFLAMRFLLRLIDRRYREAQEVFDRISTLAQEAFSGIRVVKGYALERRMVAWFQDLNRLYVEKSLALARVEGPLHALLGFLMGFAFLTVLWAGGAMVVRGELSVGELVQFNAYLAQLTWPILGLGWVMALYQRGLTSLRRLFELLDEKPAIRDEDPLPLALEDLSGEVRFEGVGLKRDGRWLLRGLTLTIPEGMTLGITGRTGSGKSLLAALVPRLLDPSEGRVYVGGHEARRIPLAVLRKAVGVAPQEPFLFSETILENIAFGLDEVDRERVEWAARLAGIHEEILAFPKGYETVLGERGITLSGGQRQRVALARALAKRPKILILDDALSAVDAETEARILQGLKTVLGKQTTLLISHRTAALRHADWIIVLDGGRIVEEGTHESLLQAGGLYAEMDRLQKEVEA
Nature of the experiment: fluorescence polarisation; 1.7 uM TmrAB with 50 nM RRY(C^Fluorescein)KSTEL in SEC buffer (20 mM HEPES, 150 mM NaCl, pH 7, 0.05% ß-DDM), 15 minutes on ice, in the absence or presence of 5 mM ATP and 10 mM MgCl2; read at 25°C (the results say 4°C); signal normalized to WT without ATP. Conditions: both partners purified. (In general: Polarisation of emitted light reports the rotation of a fluorescent probe.)

B1: fluorescent transport substrate peptide RRY(C^Fluorescein)KSTEL (peptide)
peptide: RRYC(fluorescein)KSTEL
notes: fluorescein-labelled transport substrate peptide of TmrAB; also called fluorescently-labeled peptide substrate; peptide substrate; source: bought: Genscript
As for B1, the binding result is on record as “binds”.
